# Results as given in article doi:10.1101/2020.04.15.042515 (bioRxiv, 2020).
# T1: Smith-Magenis syndrome chromosome region, candidate 8 (SMCR8), wild type (human, UniProt Q8TEV9 1-937)
# T1 sequence: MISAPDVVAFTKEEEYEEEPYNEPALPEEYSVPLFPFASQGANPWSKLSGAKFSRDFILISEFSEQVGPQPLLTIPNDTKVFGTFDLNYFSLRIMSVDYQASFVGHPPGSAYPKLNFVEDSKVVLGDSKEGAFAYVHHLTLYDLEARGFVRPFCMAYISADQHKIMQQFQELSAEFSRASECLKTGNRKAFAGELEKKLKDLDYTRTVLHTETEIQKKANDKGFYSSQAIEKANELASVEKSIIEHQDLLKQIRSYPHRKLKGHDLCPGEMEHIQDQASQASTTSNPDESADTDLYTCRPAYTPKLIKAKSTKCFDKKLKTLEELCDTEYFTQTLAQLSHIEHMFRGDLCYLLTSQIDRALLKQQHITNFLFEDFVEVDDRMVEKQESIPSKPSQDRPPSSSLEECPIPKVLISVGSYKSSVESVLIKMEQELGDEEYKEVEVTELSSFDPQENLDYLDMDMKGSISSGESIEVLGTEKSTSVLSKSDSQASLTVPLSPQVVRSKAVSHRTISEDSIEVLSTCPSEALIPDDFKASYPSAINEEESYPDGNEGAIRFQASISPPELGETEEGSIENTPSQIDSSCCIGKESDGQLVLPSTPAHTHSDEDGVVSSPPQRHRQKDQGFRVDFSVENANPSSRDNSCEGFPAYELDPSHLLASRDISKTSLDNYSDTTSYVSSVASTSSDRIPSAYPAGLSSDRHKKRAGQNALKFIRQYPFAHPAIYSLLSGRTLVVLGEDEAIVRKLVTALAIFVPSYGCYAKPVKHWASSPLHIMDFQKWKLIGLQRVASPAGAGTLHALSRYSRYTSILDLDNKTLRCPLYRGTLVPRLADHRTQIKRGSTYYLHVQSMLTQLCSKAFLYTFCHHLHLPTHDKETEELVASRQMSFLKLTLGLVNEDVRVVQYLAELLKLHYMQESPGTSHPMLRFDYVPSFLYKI
# Target: T1, Smith-Magenis syndrome chromosome …
# Assay: cryo-EM structure
row,Binder,binding result
1,"C9orf72, wild type, GST tag removed by TEV (in purified SCARF and L-SCARF) (natural protein) MSTLCPPPSPAVAKTEIALSGKSPLLAATFAYWDNILGPRVRHIWAPKTEQVLLSDGEITFLANHTLNGEILRNAESGAIDVKFFVLSEKGVIIVSLIFDGNWNGDRSTYGLSIILPQTELSFYLPLHRVCVDRLTHIIRKGRIWMHKERQENVQKIILEGTERMEDQGQSIIPMLTGEVIPVMELLSSMKSHSVPEEIDIADTVLNDDDIGDSCHEGFLLNAISSHLQTCGCSVVVGSSAEKVNKIVRTLCLFLTPAERKCSRLCEAESSFKYESGLFVQGLLKDSTGSFVLPFRQVMYAPYPTTHIDVDVNTVKQMPPCHEHIYNQRRYMRSELTAFWRATSEEDMAQDTIIYTDESFTPDLNIFQDVLHRDTLVKAFLDQVFQLKPGLSLRSTFLAQFLLVLHRKALTLIKYIEDDTQKGKKPFKSLRNLKIDLDLTAEGDLNIIMALAEKIKPGLHSFIFGRPFYTSVQERDVLMTF",binds
2,"WD repeat-containing protein 41 (WDR41), wild type, without a tag (natural protein) MLRWLIGGGREPQGLAEKSPLQTIGEEQTQNPYTELLVLKAHHDIVRFLVQLDDYRFASAGDDGIVVVWNAQTGEKLLELNGHTQKITAIITFPSLESCEEKNQLILTASADRTVIVWDGDTTRQVQRISCFQSTVKCLTVLQRLDVWLSGGNDLCVWNRKLDLLCKTSHLSDTGISALVEIPKNCVVAAVGKELIIFRLVAPTEGSLEWDILEVKRLLDHQDNILSLINVNDLSFVTGSHVGELIIWDALDWTMQAYERNFWDPSPQLDTQQEIKLCQKSNDISIHHFTCDEENVFAAVGRGLYVYSLQMKRVIACQKTAHDSNVLHVARLPNRQLISCSEDGSVRIWELREKQQLAAEPVPTGFFNMWGFGRVSKQASQPVKKQQENATSCSLELIGDLIGHSSSVEMFLYFEDHGLVTCSADHLIILWKNGERESGLRSLRLFQKLEENGDLYLAV",binds
